Assay results published in the supplement of paper PMC9170038.

system: MS2 coat protein; assay: apparent KD of MS2 coat protein; higher = weaker reporter binding; conditions: Eterna round: R107; input ligand: theophylline 2 mM
Protocol: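 RNA-MaP round R107: designed RNA switches with theophylline, tryptophan, arginine or FMN aptamers are transcribed on-chip within common flanks. They are titrated with SNAP-549-labelled MS2 coat protein in RNA-MaP buffer (100 mM Tris pH 7.5, 80 mM KCl, 4 mM MgCl2), without ligand or with the indicated ligand. Median apparent KD per design.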

Compared with “AAAACAUGAGGAUCACCCAUGUGGUGAGAAGGAGCGUCGGAAAUGACAGGUAGGUCGCUUAUCCGUAAGUAUUAGUGUUAGUACA [SSArg A #1]”, “ACCUGUACGAAAAGUGCAGGACACGGAAUACGAGGACCGGUACGGCCGCCACUCGGAAUAAACCUGAGGAUCACCCUGGUCCGUG [TrypAS 9 #AlternativeMS2 #Zipper #StaticStem]” is 11-fold lower in “apparent KD of MS2 coat protein” value: 388 nM for the first, 34.4 nM for the second.

Going from “AGACACAUGAGGAUCACCCAUGUACACGAGCGAGGACCGGUACGGCCGCCACUCGUCCAAGCAACUAAUGAGACUCGUAAGAUGG [theeternabot_sameState_MS2_Trp_A_5]” to “AGGUGCUGAUCGGCCGCCACUGAGAGGACGUGAACUUUAGCUGGUUACAUGAGGAUCACCCAUGUCAGGACCGGGAUUAGUUUGC [Quleorla]”, the “apparent KD of MS2 coat protein” value falls from 23.4 nM to 10.7 nM (2.2-fold).

First: GUUUUAUACUCGGCCGCCACUGAGAGAGUCAUGUAAACAUGAGGAUCACCCAUGUAAUAUAUAUACAGGACCGGGAGUAGGGUAA [4.F]
Second: AACAUGAGGAUCACCCAUGUCUGAACUGAAGGAGCGCUAAAUAAGGCAGGUAGGUCGCGGAAUUUUAUAUAUAUAUAUAUAUAGG [9.D]
The “apparent KD of MS2 coat protein” value of the first is 1.6-fold lower: 12.2 nM for the first, 19.8 nM for the second.

“GUUGGACUUUCGGCCGCCACUGAGAGAGUCGUGUGAACAUGAGGAUCACCCAUGUAAUAUAUAUACAGGACCGGGAGGGUUGUAA [4.N]” and “GGACUAACCUGAAGGAGCGGCACGCAGAAACUGCAAAUUCCUCCACACGAGGAUCACCCGUGUCAGGUAGGUCGCAGGUUAGUCG [ArgBX 28]” are within 1.5-fold of each other in “apparent KD of MS2 coat protein” value: 19.7 nM for the first, 22.9 nM for the second.

For “AGAGUCAGACAAAAGUCUGGCUCAGCCGAAGGAGCGUCCGAAAGGACAGGUAGGUCGCGGUUACAUGAGGAUCACCCAUGUUCCU [ArgAS 7 #OpenEnded]”, the “apparent KD of MS2 coat protein” value was 184 nM.

same assay, conditions: Eterna round: R107; input ligand: tryptophan 2.4 mM

“GGAUGAAACUGAAGGAGCGAGAUCACAAGAAUGGGUCAAACAUGAGGAUCACCCAUGUAAUCUCAGGUAGGUCGCAGUGUCCCUU [Exclusion Arginine B GF 11]” and “AACGUAUACAGAAGGAGCGUGAAUUAUAUUACUCAUUCAUAUACAUGAGGAUCACCCAUGUCACAGGUAGGUCGCUGUAUUCGUA [JR_ExcArginiB_Sub020]” are within 1.5-fold of each other in “apparent KD of MS2 coat protein” value: 46.2 nM for the first, 65.4 nM for the second.

Going from “UUGUUGUUUGGAAGGAGCGUGGAUGAGUUAGAACAUGAGGAUCACCCAUGUUGGAUGAUACCGCAGGUAGGUCGCCGGGUGGUGG [11.aA]” to “GGUUGGUCGCAGGAUACCAGUCCACCCGUGAUACUGCUAAACAUGAGGAUCACCCAUGUCGACCCUUGGCAGCCUGUCCAUGCGU [theeternabot_exclusion_MS2_Theo_B_45]”, the “apparent KD of MS2 coat protein” value falls from 51.5 nM to 17.1 nM (3-fold).

Compared with “UCCACACAUGAGGAUCACCCAUGUUGAGAUACCAGUAAACCAAAAUACCCUUGGCAGCUCCUACGCUCUUACAGCGGGAAUAUCC [theeternabot_sameState_MS2_Theo_A_46]”, “GCUAGUGGCAGAAGGAGCGGCAUACAUGCAAGUGACAUGAGGAUCACCCAUGUAAGGGAAUGCCAGGUAGGUCGCUGCCACUAGC [EAB NP+V+V2 #2 +-Same Structure]” is 4.3-fold higher in “apparent KD of MS2 coat protein” value: 14.9 nM for the first, 64.2 nM for the second.

“UAAUAAGUACCGGUCCUCAGAUCCUCAUGACGAGGACCGGUACGGCCGCCACUCGAAACAUGAGGAUCACCCAUGUAAUAAUAAU [|T'-M'-Trp-Ms2|_Design 1]” and “ACAUGAAGAACAGCGGUGGGCGCGCUCGAUACCAGUAUUUUAAACUACCCUUGGCAGCGACAUGAGGAUCACCCAUGUGAGAUGA [XTheo A #6]” are within 1.5-fold of each other in “apparent KD of MS2 coat protein” value: 18.3 nM for the first, 19.5 nM for the second.

Compared with “AGCGGCUCGAAAGAGUCGCACUCAUGUGAAGGAGCGCGCGUAAGCGCAGGUAGGUCGCACAUGAGGAUCACCCAUGUACCUUCUA [MAT - Exclusion Arginine A - Mod of Eli - D21]”, “GGACUAACCUGAAGGAGCGACACGCAGAAACUGCAAAUUCCUCCACACGAGGAUCACCCGUGUCAGGUAGGUCGCAGGUUAGUCG [ArgBX 28]” is 6.1-fold lower in “apparent KD of MS2 coat protein” value: 118 nM for the first, 19.2 nM for the second.

Going from “GAGCUGAUGUAGAGCCUUUAGUUCUGAGAUACCAGUACAGAAAUGUACCCUUGGCAGCUCAGCUUUACAUGAGGAUCACCCAUGU [Ex Theophylline A 17]” to “GCGUUCUCUGCGGCCGCCACUCAAGGAGCUACAUAGCUCCUAGACAUGAGGAUCACCCAUGUCGCGAGGACCGGGUAGAUCCUUA [Same State Typptophan B GF8]”, the “apparent KD of MS2 coat protein” value rises from 23.5 nM to 120 nM (5.1-fold).

“GAACAUGAGGAUCACCCAUGUAAAACAGAUACCAGUGAUAUAAUACACCCUUGGCAGCUGUAGCUGAAUAAUAAUUCCCUCAAGC [#19 SameState-TheophyllineA]” and “UACAUGAGGAUCACCCAUGUAUGAAUGGAUACCAGCGACAAUGGGCGCCCUUGGCAGCUAGUGGAUGAAGGGUGGGUACAAUACU [Exclusion Theophyline A GF4]” are within 1.5-fold of each other in “apparent KD of MS2 coat protein” value: 16.9 nM for the first, 11.4 nM for the second.

First: GGGUGGUAGGCGGCCGCCACUGAUUUUCAUUUAUAGAUGACAUGAGGAUCACCCAUGUUUAUGUGCAGGACCGGGCCUGUUGUGG [aaaS]
Second: UGUAUGUGAUUUGAUACCAGACCAGCUGGUGGUACUUGAGGAUCACCCAGGUAGGUUUGGGUCCCUUGGCAGCAAAUCGCAUACU [SS Theo B #24 Ms12]
The “apparent KD of MS2 coat protein” value of the first is 17-fold lower: 77.6 nM for the first, 1310 nM for the second.

Compared with “AGCAUACAUUCUGAUACCAGAGACAUGAGGAUCACCCAUGUCCGAUCGUCCUGCCUCAGACUCCCUUGGCAGCAGGAUGUGUGCU [Exclusion Theophylline B GF6]”, “AAAACAUGAGGAUCACCCAUGUGGUGAGAAGGAGCGUCGGAAAUGACAGGUAGGUCGCUUAUCCGUAAGUAUUAGUGUUAGUACA [SSArg A #1]” is 24-fold higher in “apparent KD of MS2 coat protein” value: 13.8 nM for the first, 335 nM for the second.

Compared with “CCUCAUGUGUAUCACCACAUGAGUGGUGAUACCAGCAUCGAAAGAUGCCCUUGGCAGCACCAACAUGAGGAUCACCCAUGUAAUA [(M)'-(T)'-(M)''-(T1)-(T2)-(M1)-(M2)_Design2]”, “ACCUGUACGAAAAGUGCAGGACACGGAAUACGAGGACCGGUACGGCCGCCACUCGGAAUAAACCUGAGGAUCACCCUGGUCCGUG [TrypAS 9 #AlternativeMS2 #Zipper #StaticStem]” is 8.9-fold lower in “apparent KD of MS2 coat protein” value: 287 nM for the first, 32.2 nM for the second.

First: UAAAACAUGAGGAUCACCCAUGUAUUUGAUACCAGAGUGAUGAUCCUCCCUUGGCAGCAAAUAACGCAUUGAUUACAAUGCGAAA [Mat - Same State Theophlline A - Mod of Eli - D28]
Second: ACAUGAGGAUCACCCAUGUUCCUCAUUGAUACCAGUGAAUUUAGACGCCCUUGGCAGCGAGUUUUUGAAGAAGAAGUUUUUUUUU [6.D]
The “apparent KD of MS2 coat protein” value of the first is 30-fold lower: 36 nM for the first, 1080 nM for the second.

Compared with “UCGUGUAUAUCGGAUACCAGUGAGAACGAUACAUGAGGAUCACCCAUGUGAGUUGAUGUACACCCUUGGCAGCUGUAUAUAUCUA [gghullin]”, “AUAAGUAAUGUCUCGUGUAUUAUUACAGAUACCAGACUAUCCUAUGUCCCUUGGCAGCUGGAUUACAUGAGGAUCACCCAUGUGG [#11 Exclusion-TheophyllineA]” is 2.1-fold higher in “apparent KD of MS2 coat protein” value: 20 nM for the first, 42 nM for the second.

Going from “AACAUGAGGAUCACCCAUGUCUGAACUGAAGGAGCGCUAAAUAAGGCAGGUAGGUCGCGGAAUUUUAUAUAUAUAUAUAUAUAGG [9.D]” to “GUUGGACUUUCGGCCGCCACUGAGAGAGUCGUGUGAACAUGAGGAUCACCCAUGUAAUAUAUAUACAGGACCGGGAGGGUUGUAA [4.N]”, the “apparent KD of MS2 coat protein” value falls from 25 nM to 11.3 nM (2.2-fold).

Compared with “GGACUAACCUGAAGGAGCGGCACGCAGAAACUGCAAAUUCCUCCACACGAGGAUCACCCGUGUCAGGUAGGUCGCAGGUUAGUCG [ArgBX 28]”, “AGAGUCAGACAAAAGUCUGGCUCAGCCGAAGGAGCGUCCGAAAGGACAGGUAGGUCGCGGUUACAUGAGGAUCACCCAUGUUCCU [ArgAS 7 #OpenEnded]” is 7.1-fold higher in “apparent KD of MS2 coat protein” value: 20.3 nM for the first, 145 nM for the second.
